Laboratory results published in US20110300138A1 (published 2011).

Key:
[1] = target: TSHR260-alkaline phosphatase (TSHR260-AP) (human) (UniProt P05187); assay: TSHR260-AP bridge ELISA, full length TSHR on wells; 0.005 µg/mL, diluted in assay buffer
[2] = target: TSHR260-alkaline phosphatase (TSHR260-AP) (human) (UniProt P05187); assay: TSHR260-AP bridge ELISA, full length TSHR on wells; 0.1 µg/mL, diluted in HBD
[3] = target: TSHR260-alkaline phosphatase (TSHR260-AP) (human) (UniProt P05187); assay: TSHR260-AP bridge ELISA, full length TSHR on wells; 250 µg/mL, diluted in assay buffer
[4] = target: TSHR260-alkaline phosphatase (TSHR260-AP) (human) (UniProt P05187); assay: TSHR260-AP bridge ELISA, full length TSHR on wells; 0.005 µg/mL, diluted in HBD
[5] = target: TSHR260-alkaline phosphatase (TSHR260-AP) (human) (UniProt P05187); assay: TSHR260-AP bridge ELISA, full length TSHR on wells; 250 µg/mL, diluted in HBD
[6] = target: TSHR260-alkaline phosphatase (TSHR260-AP) (human) (UniProt P05187); assay: TSHR260-AP bridge ELISA, full length TSHR on wells; 0.1 µg/mL, diluted in assay buffer
[7] = target: TSHR260-alkaline phosphatase (TSHR260-AP) (human) (UniProt P05187); assay: TSHR260-AP bridge ELISA, full length TSHR on wells; 10 µg/mL, diluted in assay buffer
[8] = target: TSHR260-alkaline phosphatase (TSHR260-AP) (human) (UniProt P05187); assay: TSHR260-AP bridge ELISA, full length TSHR on wells; 10 µg/mL, diluted in HBD

Mean absorbance at 405 nm (absorbance at 405 nm) [1]: 0
Mean absorbance at 405 nm (absorbance at 405 nm) [2]: -0.009
Mean absorbance at 405 nm (absorbance at 405 nm) [3]: 0.204
Mean absorbance at 405 nm (absorbance at 405 nm) [4]: -0.012
Mean absorbance at 405 nm (absorbance at 405 nm) [5]: -0.008
Mean absorbance at 405 nm (absorbance at 405 nm) [6]: -0.009
Mean absorbance at 405 nm (absorbance at 405 nm) [7]: 0.016
Mean absorbance at 405 nm (absorbance at 405 nm) [8]: -0.008
Substance: 5C9 Fab
